Publication PMC12364357, “Glutamate dehydrogenase from Pantoea ananatis: A new bacterial enzyme with dual coenzyme specificity” (PLOS One, 2025)

Legend:
Experiment in all cases: purified protein
[1] = tested on: NC(=O)c1ccc[n+]([C@@H]2O[C@H](COP(=O)(O)OP(=O)(O)OC[C@H]3O[C@@H](n4cnc5c(N)ncnc54)[C@H](OP(=O)(O)O)[C@@H]3O)[C@@H](O)[C@H]2O)c1; details: oxidative deamination, 150 mM L-Glu, 80 mM imidazole pH 6.0, 25 °C, pH 6.0
[2] = tested on: NC(=O)C1=CN([C@@H]2O[C@H](COP(=O)(O)OP(=O)(O)OC[C@H]3O[C@@H](n4cnc5c(N)ncnc54)[C@H](OP(=O)(O)O)[C@@H]3O)[C@@H](O)[C@H]2O)C=CC1; details: reductive amination, 5 mM α-KG, 50 mM NH4Cl, 80 mM Tris-HCl pH 8.0, 25 °C, pH 8.0
[3] = tested on: NC(=O)C1=CN([C@@H]2O[C@H](COP(=O)(O)OP(=O)(O)OC[C@H]3O[C@@H](n4cnc5c(N)ncnc54)[C@H](O)[C@@H]3O)[C@@H](O)[C@H]2O)C=CC1; details: reductive amination, 5 mM α-KG, 50 mM NH4Cl, 80 mM Tris-HCl pH 8.0, 25 °C, pH 8.0
O=C(O)CCC(=O)C(=O)O = details: reductive amination, 0.2 mM NADH, 50 mM NH4Cl, 80 mM Tris-HCl pH 8.0, 25 °C, pH 8.0
[4] = tested on: NC(=O)c1ccc[n+]([C@@H]2O[C@H](COP(=O)(O)OP(=O)(O)OC[C@H]3O[C@@H](n4cnc5c(N)ncnc54)[C@H](O)[C@@H]3O)[C@@H](O)[C@H]2O)c1; details: oxidative deamination, 150 mM L-Glu, 80 mM CHES pH 9.5, 25 °C, pH 9.5

## GdhPa (Pantoea ananatis LMG 5342)
[1]
  Km: 440 ± 50 µM
  Vmax: 0.67 µmol/min/mg
  kcat: 0.52 s⁻¹
  kcat/Km: 1180 M⁻¹ s⁻¹
[2]
  Km: 78 ± 17 µM
  Vmax: 6.29 µmol/min/mg
  kcat: 4.87 s⁻¹
  kcat/Km: 62500 M⁻¹ s⁻¹
[3]
  Km: 70 ± 14 µM
  Vmax: 5.43 µmol/min/mg
  kcat: 4.21 s⁻¹
  kcat/Km: 60100 M⁻¹ s⁻¹
O=C(O)CCC(=O)C(=O)O
  Km: 1300 ± 210 µM
  Vmax: 5.93 µmol/min/mg
  kcat: 4.6 s⁻¹
  kcat/Km: 3540 M⁻¹ s⁻¹
[4]
  Km: 900 ± 60 µM
  Vmax: 11.6 µmol/min/mg
  kcat: 8.97 s⁻¹
  kcat/Km: 9960 M⁻¹ s⁻¹
